Measured values taken from the RNAGym collection of RNA variant scans (doi:10.1073/pnas.2313332121).

B1: TPR t1 (parent)
chain: GACCAAUCUGCCCUCAGAGCUCGAGAACAUCUUCGGAUGCAGAGGAGGCAGGCUUCGGUGGCGCGAUAGCGCCAACGUCCUCAACCUCCAAUGCAUCCCACCACAUGAUGAUGCCUGAAGAGCCUUGGUUUUUUG

Variants of: B1
Assay: polymerase ribozyme fitness, log enrichment relative to wild type (log ratio); higher = more active; in vitro selection for triplet polymerase activity
Procedure, shortened: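 Mutant libraries for each subunit of a heterodimeric triplet polymerase ribozyme were made by PCR and then transcribed. Each library underwent one round of in vitro selection in triplicate: annealing with a biotinylated primer, the partner subunit and triplets, frozen incubation at −7 °C, gel excision of extended constructs, streptavidin-bead capture and RT-PCR. Input and output libraries were Illumina-sequenced, and only genotypes with ≥10 input reads and ≥1 read per output were kept. Fitness is the logarithm, base 2, of genotype enrichment over wild-type enrichment, computed from inverse-variance-weighted replicate averages.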
In the case of G48U U59C C70G, the “polymerase ribozyme fitness (log ratio)” value is reported as -6.09. For C8G U9C A16G A24U C28U U92C U96A C99A A111U G120C, the “polymerase ribozyme fitness (log ratio)” value was -6.18. For G19U A46C G52C U54C U96C C114A, the “polymerase ribozyme fitness (log ratio)” value was 0.227. With C12G G45U the “polymerase ribozyme fitness (log ratio)” value was -0.996. With C13U A41U G63U the “polymerase ribozyme fitness (log ratio)” value was -2.71. In the case of G61A C73U U78A C114A, the “polymerase ribozyme fitness (log ratio)” value is reported as -2.49. In the case of C34U U59A C94U, the “polymerase ribozyme fitness (log ratio)” value is reported as -5.57. With C76U U106C G128C the “polymerase ribozyme fitness (log ratio)” value was -3.51. With C31A C72U the “polymerase ribozyme fitness (log ratio)” value was -5.82. With C3A G39A C104U C115U the “polymerase ribozyme fitness (log ratio)” value was -2.58. In the case of G44A C73A U87G, the “polymerase ribozyme fitness (log ratio)” value is reported as -0.428. For C11U A66G U87G G113U, the “polymerase ribozyme fitness (log ratio)” value was -5.47. For G19A C89A, the “polymerase ribozyme fitness (log ratio)” value was -2.63. In the case of C70A U78C, the “polymerase ribozyme fitness (log ratio)” value is reported as -1.85. With C3U C11G U21A U129A the “polymerase ribozyme fitness (log ratio)” value was -0.924. With G45U G63A U131A the “polymerase ribozyme fitness (log ratio)” value was -1.33. With C49A C62A G71U G117A U130C the “polymerase ribozyme fitness (log ratio)” value was -1.49. In the case of G17U U81A, the “polymerase ribozyme fitness (log ratio)” value is reported as -3.22. With U9A G19U C88A C114A the “polymerase ribozyme fitness (log ratio)” value was 1.72. For A41C U81G C115A, the “polymerase ribozyme fitness (log ratio)” value was -4.91. In the case of C12U A74C C79U A121U, the “polymerase ribozyme fitness (log ratio)” value is reported as 1.34. In the case of G69U C99A A111C, the “polymerase ribozyme fitness (log ratio)” value is reported as -2.81. For G60C C86A C97G U116C, the “polymerase ribozyme fitness (log ratio)” value was -4.3. In the case of G61U A83U A91C U96A, the “polymerase ribozyme fitness (log ratio)” value is reported as -1.27. In the case of G47C C72U A90G C123U, the “polymerase ribozyme fitness (log ratio)” value is reported as -1.64. In the case of G65U G69U G113A U130G, the “polymerase ribozyme fitness (log ratio)” value is reported as -4.13. For C8G A50U G61U, the “polymerase ribozyme fitness (log ratio)” value was 0.00345. For A2C C86U, the “polymerase ribozyme fitness (log ratio)” value was -1.99. In the case of G48A G69C C79U U92G U116C G120C, the “polymerase ribozyme fitness (log ratio)” value is reported as -7.13. In the case of C15G A118U C123U, the “polymerase ribozyme fitness (log ratio)” value is reported as -0.83. With G39C G45U G61A U112C the “polymerase ribozyme fitness (log ratio)” value was 0.603. With A6C G58C U92G C114A U130A the “polymerase ribozyme fitness (log ratio)” value was -4.44. With U78A C104A C114A the “polymerase ribozyme fitness (log ratio)” value was -5.24. For C56U U129G, the “polymerase ribozyme fitness (log ratio)” value was -0.409. For G45A C73U G113A C115U, the “polymerase ribozyme fitness (log ratio)” value was -4.38. In the case of C40U C72A C82G C102A G120A G122U, the “polymerase ribozyme fitness (log ratio)” value is reported as -3.11. In the case of G44C A91C G120A, the “polymerase ribozyme fitness (log ratio)” value is reported as -0.836. For C12U A46C A100G, the “polymerase ribozyme fitness (log ratio)” value was -3.74. In the case of A24G C56A G60U A83C, the “polymerase ribozyme fitness (log ratio)” value is reported as -2.27. In the case of C8G A16C C62A G71A G120C, the “polymerase ribozyme fitness (log ratio)” value is reported as -1.27. In the case of A18G U112A, the “polymerase ribozyme fitness (log ratio)” value is reported as -0.0704. In the case of C11G G60U U116G C124U, the “polymerase ribozyme fitness (log ratio)” value is reported as -3.49. In the case of C3U G17C C22A A29G G45A G69U C89U, the “polymerase ribozyme fitness (log ratio)” value is reported as -3.84. For G36A C62A C102A, the “polymerase ribozyme fitness (log ratio)” value was -5.26. In the case of C13G A37G C53G G110U G113A, the “polymerase ribozyme fitness (log ratio)” value is reported as -5. For A84G C88U C124U, the “polymerase ribozyme fitness (log ratio)” value was 0.679. For G52A C89G U129G, the “polymerase ribozyme fitness (log ratio)” value was -2.09. With U21A G42A A46U G60A the “polymerase ribozyme fitness (log ratio)” value was -4.47. For G44A C79A U125A, the “polymerase ribozyme fitness (log ratio)” value was -3.2. With C89U A90C the “polymerase ribozyme fitness (log ratio)” value was -0.815. With U112A G113U the “polymerase ribozyme fitness (log ratio)” value was -0.351. For A50G G128C, the “polymerase ribozyme fitness (log ratio)” value was -1.8. For U59G C80A A121C, the “polymerase ribozyme fitness (log ratio)” value was -0.276. With G77A C123U the “polymerase ribozyme fitness (log ratio)” value was 1.1. In the case of C72A C115A G135A, the “polymerase ribozyme fitness (log ratio)” value is reported as -0.346. In the case of C8G C28A G61A, the “polymerase ribozyme fitness (log ratio)” value is reported as -3.79. For C80U C88G C124U, the “polymerase ribozyme fitness (log ratio)” value was -1.05. In the case of C53A C79A C104A U106A U132C, the “polymerase ribozyme fitness (log ratio)” value is reported as -3.18. For C8G G36U C70U, the “polymerase ribozyme fitness (log ratio)” value was 0.358. In the case of G110U G120A, the “polymerase ribozyme fitness (log ratio)” value is reported as -2.47. For U32G C56G, the “polymerase ribozyme fitness (log ratio)” value was -6.87. In the case of U54G G113U, the “polymerase ribozyme fitness (log ratio)” value is reported as -3.26. For C8A C49A C86U G93U C94U C123A, the “polymerase ribozyme fitness (log ratio)” value was -0.367. For C8G G10C C73G U81A C88U, the “polymerase ribozyme fitness (log ratio)” value was -1.77. In the case of G45A G113A, the “polymerase ribozyme fitness (log ratio)” value is reported as -1.71. In the case of A41U U112A, the “polymerase ribozyme fitness (log ratio)” value is reported as -0.325. For A46U C62U C94G U131G, the “polymerase ribozyme fitness (log ratio)” value was -4.7. In the case of C72U A121U, the “polymerase ribozyme fitness (log ratio)” value is reported as 1.5. In the case of C20A G42C, the “polymerase ribozyme fitness (log ratio)” value is reported as -4.12. With G71C A118U C124G the “polymerase ribozyme fitness (log ratio)” value was 0.835. With C3U G57U G69A the “polymerase ribozyme fitness (log ratio)” value was -3.04. In the case of C31A C88U A121G, the “polymerase ribozyme fitness (log ratio)” value is reported as -2.7. For A50G C70G, the “polymerase ribozyme fitness (log ratio)” value was -4.35. In the case of C13G U125A, the “polymerase ribozyme fitness (log ratio)” value is reported as -1.62. For A83U A95G C104G A105C C115A G117U, the “polymerase ribozyme fitness (log ratio)” value was -5.76. For C34U G69U A105U G120U, the “polymerase ribozyme fitness (log ratio)” value was -2.74. With U7C C8G C85A U112G the “polymerase ribozyme fitness (log ratio)” value was -1.68. For C20A C86G C89U A119U, the “polymerase ribozyme fitness (log ratio)” value was -6.11. With C13U C40U C124G the “polymerase ribozyme fitness (log ratio)” value was 1.61. In the case of C4U U38G C49A C53U C73U, the “polymerase ribozyme fitness (log ratio)” value is reported as -2.53. For A24G G60A, the “polymerase ribozyme fitness (log ratio)” value was -1.82. For A41C C98U, the “polymerase ribozyme fitness (log ratio)” value was -2.48. For A74C C94U, the “polymerase ribozyme fitness (log ratio)” value was -0.6. For C13G A16G U21A A29C A43U G69U C82G C114U, the “polymerase ribozyme fitness (log ratio)” value was -4.09.
